Consider 1 substance from patent US20220249621A1.

This test concerns the target EphB4 on CD4+ T cells isolated from the spleens of tumor-bearing mice (mouse) (UniProt P54761). Put plainly: cell-based or functional assay.
Chain of UniProt P54761 (P54761 16-987): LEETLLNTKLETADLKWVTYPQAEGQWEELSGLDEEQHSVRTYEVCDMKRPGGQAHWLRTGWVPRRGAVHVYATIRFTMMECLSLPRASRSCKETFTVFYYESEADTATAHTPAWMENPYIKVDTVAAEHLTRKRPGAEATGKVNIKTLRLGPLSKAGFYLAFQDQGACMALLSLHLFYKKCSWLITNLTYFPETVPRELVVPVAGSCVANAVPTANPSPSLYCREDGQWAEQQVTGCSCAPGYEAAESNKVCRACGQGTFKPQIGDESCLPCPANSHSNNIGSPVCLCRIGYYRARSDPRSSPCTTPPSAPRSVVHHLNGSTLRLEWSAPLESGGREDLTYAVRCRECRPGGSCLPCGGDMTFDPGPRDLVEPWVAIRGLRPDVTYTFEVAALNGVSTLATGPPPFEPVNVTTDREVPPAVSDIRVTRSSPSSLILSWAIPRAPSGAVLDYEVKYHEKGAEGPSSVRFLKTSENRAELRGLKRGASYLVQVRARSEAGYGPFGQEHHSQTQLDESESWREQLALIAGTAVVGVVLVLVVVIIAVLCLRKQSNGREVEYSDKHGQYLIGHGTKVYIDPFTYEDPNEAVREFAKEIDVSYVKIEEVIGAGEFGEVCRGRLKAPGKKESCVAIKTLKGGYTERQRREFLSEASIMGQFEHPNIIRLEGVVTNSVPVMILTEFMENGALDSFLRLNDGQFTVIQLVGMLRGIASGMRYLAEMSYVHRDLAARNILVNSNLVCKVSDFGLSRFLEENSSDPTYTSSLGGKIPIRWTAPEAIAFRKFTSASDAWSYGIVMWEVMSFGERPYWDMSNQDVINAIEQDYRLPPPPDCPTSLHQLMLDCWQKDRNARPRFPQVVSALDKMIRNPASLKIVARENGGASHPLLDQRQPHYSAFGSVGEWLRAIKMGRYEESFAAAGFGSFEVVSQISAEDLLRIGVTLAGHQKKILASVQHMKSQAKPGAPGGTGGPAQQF

With recombinant ephrin-B2-Fc (Fc fusion), the fold decrease in Ki67 expressing Tregs (flow cytometry) is 1.7 fold.
